From the supplement of paper PMC10567573

B1: HNF4A (parent)
chain: RFSRQCVVDKDKRNQCRYCRLKKC

Variants of: B1
Assay: protein stability index of a GFP-peptide fusion (GPS, HEK-293T) (PSI 1-6); higher = more stable
Details: c terminus: a fixed tail appended
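Further: lentivirally expressed fusions sorted by FACS into six bins by GFP to DsRed ratio, PSI derived from sequencing read proportions per bin multiplied by bin number.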

| Variant | protein stability index |
| --- | --- |
| RFSRQCVVDKDKRNQCRYVRLKKC [C19V] | 2.95 |
| RFSRQCVVDKDKRNQCRYNRLKKC [C19N] | 3.71 |
| RFSRQCVVDKDKRNQCRYMRLKKC [C19M] | 3.08 |
| RFSRQCVVDKDKRNQCRYQRLKKC [C19Q] | 3.73 |
| RFSRQCVVDKDKRNQCRYLRLKKC [C19L] | 3.07 |
| RFSRQCVVDKDKRNQCRYSRLKKC [C19S] | 3.65 |
| RFSRQCVVDKDKRTQCRYCRLKKC [N14T] | 2.31 |
| RFSRQCVVDKDKRLQCRYCRLKKC [N14L] | 2.87 |
| RFSRQCVVDKDKRDQCRYCRLKKC [N14D] | 2.24 |
| RFSRQCVVDKDKRWQCRYCRLKKC [N14W] | 2.27 |
| RFSRQCVVDKDKRCQCRYCRLKKC [N14C] | 3.46 |
| RFSRQCVVDKDKRHQCRYCRLKKC [N14H] | 3.45 |
| RFSRQCVVDKDKRYQCRYCRLKKC [N14Y] | 3.62 |
| RFSRQCVVDKDKREQCRYCRLKKC [N14E] | 2.95 |
| RFSRQCVVDKDKRPQCRYCRLKKC [N14P] | 2.72 |
| RFSRQCVVDKDKRVQCRYCRLKKC [N14V] | 2.6 |
| RFSRQCVVDKDKRFQCRYCRLKKC [N14F] | 2.16 |
| RFSRQCVVDKDKRIQCRYCRLKKC [N14I] | 2.39 |
| RFSRQCVVDKDKRKQCRYCRLKKC [N14K] | 2.23 |
| RFSRQCVVDKDKRAQCRYCRLKKC [N14A] | 1.5 |
| RFSRQCVVDKDKRGQCRYCRLKKC [N14G] | 2.57 |
| RFSRQCVVDKDKRSQCRYCRLKKC [N14S] | 2.96 |
| RFSRQCVVDKDKRMQCRYCRLKKC [N14M] | 1.98 |
| RFSRQCVVDKDKRQQCRYCRLKKC [N14Q] | 2.18 |

| Variant | protein stability index |
| --- | --- |
| RFSRQCVVDKDKRNQCRYCHLKKC [R20H] | 1.58 |
| RFSRQCVVDKDKRNQCRYCLLKKC [R20L] | 2.35 |
| RFSRQCVVDKDKRNQCRYCSLKKC [R20S] | 2.72 |
| RFSRQCVVDKDKRNQCRYCALKKC [R20A] | 2.96 |
| RFSRQCVVDKDKRNQCRYCDLKKC [R20D] | 3 |
| RFSRQCVVDKDKRNQCRYCCLKKC [R20C] | 2.24 |
| RFSRQCVVDKDKRNQCRYCMLKKC [R20M] | 2.96 |
| RFSRQCVVDKDKRNQCRYCWLKKC [R20W] | 1.43 |
| RFSRQCVVDKDKRNQCRYCVLKKC [R20V] | 2.56 |
| RFSRQCVVDKDKRNQCRYCTLKKC [R20T] | 2.74 |
| RFSRQCVVDKDKRNQCRYCFLKKC [R20F] | 2.12 |
| RFSRQCVVDKDKRNQCRYCNLKKC [R20N] | 2.62 |
| RFSRQCVVDKDKRNQCRYCGLKKC [R20G] | 3.23 |
| RFSRQCVVDKDKRNQCRYCELKKC [R20E] | 2.84 |
| RFSRQCVVDKDKRNQCRYCQLKKC [R20Q] | 2.98 |
| RFSRQCVVDKDKRNQCRYCILKKC [R20I] | 2.42 |
| RFSRQCVVDKDKRNQCRYCPLKKC [R20P] | 3.15 |
| RFSRQCVVDKDKRNQCRYCKLKKC [R20K] | 2.58 |
| RFSRQCVVDKDKRNQCRYCYLKKC [R20Y] | 2.28 |
| RFSRQCVVDKDKENQCRYCRLKKC [R13E] | 2.02 |
| RFSRQCVVDKDKKNQCRYCRLKKC [R13K] | 2.4 |
| RFSRQCVVDKDKGNQCRYCRLKKC [R13G] | 2.21 |
| RFSRQCVVDKDKINQCRYCRLKKC [R13I] | 2.38 |
| RFSRQCVVDKDKPNQCRYCRLKKC [R13P] | 1.84 |

| Variant | protein stability index |
| --- | --- |
| RFSRQCVVDKDKFNQCRYCRLKKC [R13F] | 2.56 |
| RFSRQCVVDKDKMNQCRYCRLKKC [R13M] | 3.02 |
| RFSRQCVVDKDKLNQCRYCRLKKC [R13L] | 2.22 |
| RFSRQCVVDKDKHNQCRYCRLKKC [R13H] | 2.98 |
| RFSRQCVVDKDKVNQCRYCRLKKC [R13V] | 2.7 |
| RFSRQCVVDKDKSNQCRYCRLKKC [R13S] | 2.65 |
| RFSRQCVVDKDKWNQCRYCRLKKC [R13W] | 1.93 |
| RFSRQCVVDKDKDNQCRYCRLKKC [R13D] | 3.2 |
| RFSRQCVVDKDKCNQCRYCRLKKC [R13C] | 3.06 |
| RFSRQCVVDKDKTNQCRYCRLKKC [R13T] | 2.99 |
| RFSRQCVVDKDKYNQCRYCRLKKC [R13Y] | 2.76 |
| RFSRQCVVDKDKNNQCRYCRLKKC [R13N] | 3.03 |
| RFSRQCVVDKDKANQCRYCRLKKC [R13A] | 2.11 |
| RFSRQCVVDKDKQNQCRYCRLKKC [R13Q] | 2.83 |
| RFSRQCVVDKDKRNQTRYCRLKKC [C16T] | 3.56 |
| RFSRQCVVDKDKRNQGRYCRLKKC [C16G] | 2.61 |
| RFSRQCVVDKDKRNQQRYCRLKKC [C16Q] | 3.38 |
| RFSRQCVVDKDKRNQIRYCRLKKC [C16I] | 2.93 |
| RFSRQCVVDKDKRNQKRYCRLKKC [C16K] | 3.1 |
| RFSRQCVVDKDKRNQRRYCRLKKC [C16R] | 4.33 |
| RFSRQCVVDKDKRNQYRYCRLKKC [C16Y] | 3.48 |
| RFSRQCVVDKDKRNQWRYCRLKKC [C16W] | 3.37 |
| RFSRQCVVDKDKRNQSRYCRLKKC [C16S] | 3.52 |
| RFSRQCVVDKDKRNQERYCRLKKC [C16E] | 4.05 |

| Variant | protein stability index |
| --- | --- |
| RFSRQCVVDKDKRNQVRYCRLKKC [C16V] | 3.33 |
| RFSRQCVVDKDKRNQARYCRLKKC [C16A] | 2.56 |
| RFSRQCVVDKDKRNQLRYCRLKKC [C16L] | 2.92 |
| RFSRQCVVDKDKRNQNRYCRLKKC [C16N] | 3.31 |
| RFSRQCVVDKDKRNQFRYCRLKKC [C16F] | 2.97 |
| RFSRQCVVDKDKRNQHRYCRLKKC [C16H] | 3.9 |
| RFSRQCVVDKDKRNQPRYCRLKKC [C16P] | 3.58 |
| RFSRQCVVDKDKRNQCRYCRRKKC [L21R] | 4.08 |
| RFSRQCVVDKDKRNQCRYCRFKKC [L21F] | 2.86 |
| RFSRQCVVDKDKRNQCRYCRGKKC [L21G] | 2.94 |
| RFSRQCVVDKDKRNQCRYCREKKC [L21E] | 3.08 |
| RFSRQCVVDKDKRNQCRYCRQKKC [L21Q] | 3.64 |
| RFSRQCVVDKDKRNQCRYCRDKKC [L21D] | 3.35 |
| RFSRQCVVDKDKRNQCRYCRSKKC [L21S] | 3.36 |
| RFSRQCVVDKDKRNQCRYCRIKKC [L21I] | 3.22 |
| RFSRQCVVDKDKRNQCRYCRHKKC [L21H] | 3.41 |
| RFSRQCVVDKDKRNQCRYCRNKKC [L21N] | 3.33 |
| RFSRQCVVDKDKRNQCRYCRAKKC [L21A] | 3.51 |
| RFSRQCVVDKDKRNQCRYCRCKKC [L21C] | 3.73 |
| RFSRQCVVDKDKRNQCRYCRMKKC [L21M] | 3.61 |
| RFSRQCVVDKDKRNQCRYCRPKKC [L21P] | 2.94 |
| RFSRQCVVDKDKRNQCRYCRKKKC [L21K] | 4.07 |
